Measured values as given in paper PMC5436826, “The PET and LIM1-2 domains of testin contribute to intramolecular and homodimeric interactions” (PLoS ONE, 2017).
Each block holds one binder with its values, some of them ahead of it.

How the values were obtained:
[1] = biological target: T1, untagged PET^52-233 of testin (amino acids 52-233) (human, UniProt Q9UGI8-1 52-233); experiment: supernatans depletion assay; GST-LIM1-3 on glutathione-sepharose beads at 0.31-50 μM incubated with 2.5 μM PET^52-233 in buffer A, 1 hour at 4°C; unbound PET^52-233 quantified on Coomassie gels; fit 'one site saturation + nonspecific'; settings: both partners purified
T1 construct: pGEX-2TK; source: E. coli BL21(DE3) pLYSstar, purified on glutathione sepharose as GST fusion, GST removed with thrombin
T1 sequence (looked up): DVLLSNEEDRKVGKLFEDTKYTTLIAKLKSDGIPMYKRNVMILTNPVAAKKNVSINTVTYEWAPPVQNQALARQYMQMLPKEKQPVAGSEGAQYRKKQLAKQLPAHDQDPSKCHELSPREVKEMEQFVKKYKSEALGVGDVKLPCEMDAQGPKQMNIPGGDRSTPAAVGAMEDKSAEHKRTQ

[2] = biological target: T2, GST-FL (glutathione-S-transferase fused full length testin) (Homo sapiens (Human), UniProt Q9UGI8-1); experiment: GST pull-down with western blot
T2 chain: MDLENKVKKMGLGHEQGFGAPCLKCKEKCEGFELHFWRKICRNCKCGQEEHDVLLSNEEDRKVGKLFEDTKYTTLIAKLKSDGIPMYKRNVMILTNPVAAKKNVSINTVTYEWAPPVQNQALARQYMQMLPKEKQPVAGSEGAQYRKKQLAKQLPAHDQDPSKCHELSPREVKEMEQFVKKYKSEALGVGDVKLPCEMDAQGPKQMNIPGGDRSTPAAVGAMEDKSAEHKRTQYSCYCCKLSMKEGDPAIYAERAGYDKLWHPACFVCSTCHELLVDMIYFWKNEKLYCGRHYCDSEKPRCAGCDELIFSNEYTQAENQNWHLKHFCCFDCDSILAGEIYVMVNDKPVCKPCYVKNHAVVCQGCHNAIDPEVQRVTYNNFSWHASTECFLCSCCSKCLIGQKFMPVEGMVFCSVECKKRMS

[3] = biological target: the molecule itself; experiment: SEC; untagged FL (1.5 mg or as specified) on calibrated Superdex 200 HR 10/30, buffer A, 0.8 ml/min; dimer and monomer fractions re-run; monomer-dimer equilibrium

- Kd [1]: 180 nM
B1: GST-LIM1-3 of testin (domain or fragment)
chain: YSCYCCKLSMKEGDPAIYAERAGYDKLWHPACFVCSTCHELLVDMIYFWKNEKLYCGRHYCDSEKPRCAGCDELIFSNEYTQAENQNWHLKHFCCFDCDSILAGEIYVMVNDKPVCKPCYVKNHAVVCQGCHNAIDPEVQRVTYNNFSWHASTECFLCSCCSKCLIGQKFMPVEGMVFCSVECKKRMS
modifications: zinc-bound LIM domains; exact start is only in Fig 1A, so limits are taken from the UniProt LIM1 start (234, adjacent to PET 52-233) to the C-terminus (421); GST omitted

- binding result [2]: binds
B2: ena/VASP-like protein (Evl), soluble untagged (protein)
chain: MSEQSICQARASVMVYDDTSKKWVPIKPGQQGFSRINIYHNTASNTFRVVGVKLQDQQVVINYSIVKGLKYNQATPTFHQWRDARQVYGLNFASKEEATTFSNAMLFALNIMNSQEGGPSSQRQVQNGPSPDEMDIQRRQVMEQHQQQRQESLERRTSATGPILPPGHPSSAASAPVSCSGPPPPPPPPVPPPPTGATPPPPPPLPAGGAQGSSHDESSMSGLAAAIAGAKLRRVQRPEDASGGSSPSGTSKSDANRASSGGGGGGLMEEMNKLLAKRRKAASQSDKPAEKKEDESQMEDPSTSPSPGTRAASQPPNSSEAGRKPWERSNSVEKPVSSILSRTPSVAKSPEAKSPLQSQPHSRMKPAGSVNDMALDAFDLDRMKQEILEEVVRELHKVKEEIIDAIRQELSGISTT

B3: untagged recombinant full length (FL) testin (natural protein, human, UniProt Q9UGI8-1 1-421, looked up)
chain: MDLENKVKKMGLGHEQGFGAPCLKCKEKCEGFELHFWRKICRNCKCGQEEHDVLLSNEEDRKVGKLFEDTKYTTLIAKLKSDGIPMYKRNVMILTNPVAAKKNVSINTVTYEWAPPVQNQALARQYMQMLPKEKQPVAGSEGAQYRKKQLAKQLPAHDQDPSKCHELSPREVKEMEQFVKKYKSEALGVGDVKLPCEMDAQGPKQMNIPGGDRSTPAAVGAMEDKSAEHKRTQYSCYCCKLSMKEGDPAIYAERAGYDKLWHPACFVCSTCHELLVDMIYFWKNEKLYCGRHYCDSEKPRCAGCDELIFSNEYTQAENQNWHLKHFCCFDCDSILAGEIYVMVNDKPVCKPCYVKNHAVVCQGCHNAIDPEVQRVTYNNFSWHASTECFLCSCCSKCLIGQKFMPVEGMVFCSVECKKRMS
notes: testin, human, full length protein (residues 1-421), isoform 1 NP_056456.1; From pGEX-2TK; thrombin site between GST and FL; By SEC it is in a monomer-dimer equilibrium; also called non-tagged recombinant FL; source: E. coli BL21(DE3) pLYSstar, purified on glutathione sepharose as GST-FL, GST removed with thrombin
- stoichiometry N [3]: 2
